The chains are these.
B1: CD33/CD3 tandem diabody 13 (bispecific antibody)
chain: DIQMTQSPSSLSASVGDRVTITCRSSTGAVTTSNYANWVQQKPGKAPKGLIGGTNKRAPGVPSRFSGSLIGTDFTLTISSLQPEDFATYYCALWYSNLWVFGQGTKVEIKGGSGGSQVQLVQSGAEVKKPGASVKVSCKASGYTFTSYDINWVRQAPGQGLEWMGWMNPNSGNTGFAQKFQGRVTMTRDTSTSTVYMELSSLRSEDTAVYYCARDRAVTDYYYGMDVWGQGTLVTVSSGGSGQSVLTQPPSASGTPGQRVTISCSGSRSNIGSNTVNWYQQLPGTAPKLLIYGNNQRPSGVPDRFSGSKSGTSASLAISGLQSEDEADYYCATWDDSLIGWVFGGGTKLTVLGGSGGSEVQLVESGGGLVQPGGSLRLSCAASGFTFSTYAMNWVRQAPGKGLEWVGRIRSKYNNYATYYADSVKDRFTISRDDSKNSLYLQMNSLKTEDTAVYYCARHGNFGNSYVSWFAYWGQGTLVTVSS
B2: CD33/CD3 tandem diabody 07 (bispecific antibody)
chain: DIQMTQSPSSLSASVGDRVTITCRSSTGAVTTSNYANWVQQKPGKAPKALIGGTNKRAPGVPSRFSGSLIGDKATLTISSLQPEDFATYYCALWYSNLWVFGQGTKVEIKGGSGGSQVQLQESGGGVVQPGRSLRLSCAASGFSFSNYGIHWVRQAPGKGLEWVALISYDGNKKFYADSVKGRFAISRDTSKNTVDLQMTSLRPEDTAVYYCAKDRLESAAFDYWGQGTLVTVSSGGSGGSSYELTQPPSVSVAPGQTAMITCGGNNIGSTTVHWYQQKPGQAPVLVVYDDNERPSGIPERFSGSNSGSTATLTINRVEAGDEADYYCQVWDSGSDHVVFGGGTKLTVLGGSGGSEVQLVESGGGLVQPGGSLRLSCAASGFTFSTYAMNWVRQAPGKGLEWVGRIRSKYNNYATYYADSVKDRFTISRDDSKNSLYLQMNSLKTEDTAVYYCARHGNFGNSYVSYFAYWGQGTLVTVSSAAAGSHHHHHH
B3: CD33/CD3 tandem diabody 09 (bispecific antibody)
chain: DIQMTQSPSSLSASVGDRVTITCRSSTGAVTTSNYANWVQQKPGKAPKGLIGGTNKRAPGVPSRFSGSLIGDKATLTISSLQPEDFATYYCALWYSNLWVFGQGTKVEIKGGSGGSQVQLVQSGAEVKKPGASVKVSCKASGYTFTSYDINWVRQAPGQGLEWMGWMNPNSGNTGFAQKFQGRVTMTRDTSTSTVYMELSSLRSEDTAVYYCARDRANTDFSYGMDVWGQGTLVTVSSGGSGQSVLTQPPSASGTPGQRVTISCSGSRSNIGSNTVNWYQQLPGTAPKLLIYGNNQRPSGVPDRFSGSKSGSSASLAISGLQSEDEADYYCATWDDSLIGWVFGGGTKLTVLGGSGGSEVQLVESGGGLVQPGGSLRLSCAASGFTFSTYAMNWVRQAPGKGLEWVGRIRSKYNNYATYYADSVKDRFTISRDDSKNSLYLQMNSLKTEDTAVYYCARHGNFGNSYVSWFAYWGQGTLVTVSSAAAGSHHHHHH
B4: CD33/CD3 tandem diabody 12 (bispecific antibody)
chain: DIQMTQSPSSLSASVGDRVTITCRSSTGAVTTSNYANWVQQKPGKAPKALIGGTNKRAPGVPSRFSGSLIGDKATLTISSLQPEDFATYYCALWYSNLWVFGQGTKVEIKGGSGGSQVQLVQSGAEVKKPGASVKVSCKASGYTFTSYDINWVRQAPGQGLEWMGWMNPNSGNTGFAQKFQGRVTMTRDTSTSTVYMELSSLRSEDTAVYYCARDRAVTDYYYGMDVWGQGTLVTVSSGGSGQSVLTQPPSASGTPGQRVTISCSGSRSNIGSNTVNWYQQLPGTAPKLLIYGNNQRPSGVPDRFSGSKSGTSASLAISGLQSEDEADYYCATWDDSLIGWVFGGGTKLTVLGGSGGSEVQLVESGGGLVQPGGSLRLSCAASGFTFSTYAMNWVRQAPGKGLEWVGRIRSKYNNYATYYADSVKDRFTISRDDSKNSLYLQMNSLKTEDTAVYYCARHGNFGNSYVSYFAYWGQGTLVTVSSAAAGSHHHHHH
B5: CD33/CD3 tandem diabody 15 (bispecific antibody)
chain: DIQMTQSPSSLSASVGDRVTITCRSSTGAVTTSNYANWVQQKPGKAPKALIGGTNKRAPGVPSRFSGSLIGDKATLTISSLQPEDFATYYCALWYSNLWVFGQGTKVEIKGGSGGSQVQLVQSGAEVKKPGASVKVSCKASGYTFTSYDINWVRQAPGQGLEWMGWMNPNSGNTGFAQKFQGRVTMTRDTSTSTVYMELSSLRSEDTAVYYCARDRANTDYSFGMDVWGQGTLVTVSSGGSGQSVLTQPPSASGTPGQRVTISCSGSRSNIGSNTVNWYQQLPGTAPKLLIYGNNQRPSGVPDRFSGSKSGTSASLAISGLQSEDEADYYCATWDDSLIGWVFGGGTKLTVLGGSGGSEVQLVESGGGLVQPGGSLRLSCAASGFTFSTYAMNWVRQAPGKGLEWVGRIRSKYNNYATYYADSVKDRFTISRDDSKNSLYLQMNSLKTEDTAVYYCARHGNFGNSYVSYFAYWGQGTLVTVSSAAAGSHHHHHH
B6: CD33/CD3 tandem diabody 01 (bispecific antibody)
chain: DIQMTQSPSSLSASVGDRVTITCRSSTGAVTTSNYANWVQQKPGKAPKGLIGGTNKRAPGVPARFSGSGSGTDFTLTISSLQPEDFATYYCALWYSNLWVFGQGTKVEIKGGSGGSQVQLVQSGAEVKKPGASVKVSCKASGYTFTSYDINWVRQAPGQGLEWMGWMNPNSGNTGFAQKFQGRVTMTRDTSTSTVYMELSSLRSEDTAVYYCARDRANTDFSYGMDVWGQGTLVTVSSGGSGQSVLTQPPSASGTPGQRVTISCSGSRSNIGSNTVNWYQQLPGTAPKLLIYGNNQRPSGVPDRFSGSKSGSSASLAISGLQSEDEADYYCATWDDSLIGWVFGGGTKLTVLGGSGGSEVQLVESGGGLVQPGGSLRLSCAASGFTFSTYAMNWVRQAPGKGLEWVGRIRSKYNNYATYYADSVKDRFTISRDDSKNSLYLQMNSLKTEDTAVYYCARHGNFGNSYVSWFAYWGQGTLVTVSSAAAGSHHHHHH
B7: CD33/CD3 tandem diabody 10 (bispecific antibody)
chain: DIQMTQSPSSLSASVGDRVTITCRSSTGAVTTSNYANWVQQKPGKAPKGLIGGTNKRAPGVPSRFSGSLIGDKATLTISSLQPEDFATYYCALWYSNLWVFGQGTKVEIKGGSGGSQVQLVQSGAEVKKPGASVKVSCKASGYTFTSYDINWVRQAPGQGLEWMGWMNPNSGNTGFAQKFQGRVTMTRDTSTSTVYMELSSLRSEDTAVYYCARDRANTDYSFGMDVWGQGTLVTVSSGGSGQSVLTQPPSASGTPGQRVTISCSGSRSNIGSNTVNWYQQLPGTAPKLLIYGNNQRPSGVPDRFSGSKSGTSASLAISGLQSEDEADYYCATWDDSLIGWVFGGGTKLTVLGGSGGSEVQLVESGGGLVQPGGSLRLSCAASGFTFSTYAMNWVRQAPGKGLEWVGRIRSKYNNYATYYADSVKDRFTISRDDSKNSLYLQMNSLKTEDTAVYYCARHGNFGNSYVSWFAYWGQGTLVTVSSAAAGSHHHHHH
B8: CD33/CD3 tandem diabody 14 (bispecific antibody)
chain: DIQMTQSPSSLSASVGDRVTITCRSSTGAVTTSNYANWVQQKPGKAPKALIGGTNKRAPGVPSRFSGSLIGDKATLTISSLQPEDFATYYCALWYSNLWVFGQGTKVEIKGGSGGSQVQLVQSGAEVKKPGASVKVSCKASGYTFTSYDINWVRQAPGQGLEWMGWMNPNSGNTGFAQKFQGRVTMTRDTSTSTVYMELSSLRSEDTAVYYCARDRANTDFSYGMDVWGQGTLVTVSSGGSGQSVLTQPPSASGTPGQRVTISCSGSRSNIGSNTVNWYQQLPGTAPKLLIYGNNQRPSGVPDRFSGSKSGSSASLAISGLQSEDEADYYCATWDDSLIGWVFGGGTKLTVLGGSGGSEVQLVESGGGLVQPGGSLRLSCAASGFTFSTYAMNWVRQAPGKGLEWVGRIRSKYNNYATYYADSVKDRFTISRDDSKNSLYLQMNSLKTEDTAVYYCARHGNFGNSYVSYFAYWGQGTLVTVSSAAAGSHHHHHH
B9: CD33/CD3 tandem diabody 11 (bispecific antibody)
chain: DIQMTQSPSSLSASVGDRVTITCRSSTGAVTTSNYANWVQQKPGKAPKGLIGGTNKRAPGVPSRFSGSLIGDKATLTISSLQPEDFATYYCALWYSNLWVFGQGTKVEIKGGSGGSQVQLVQSGAEVKKPGASVKVSCKASGYTFTSYDINWVRQAPGQGLEWMGWMNPNSGNTGFAQKFQGRVTMTRDTSTSTVYMELSSLRSEDTAVYYCARDRANTDYSLGMDVWGQGTLVTVSSGGSGQSVLTQPPSASGTPGQRVTISCSGSRSNIGSNTVNWYQQLPGTAPKLLIYGNNQRPSGVPDRFSGSKSGTSASLAISGLQSEDEADYYCATWDDSLIGWVFGGGTKLTVLGGSGGSEVQLVESGGGLVQPGGSLRLSCAASGFTFSTYAMNWVRQAPGKGLEWVGRIRSKYNNYATYYADSVKDRFTISRDDSKNSLYLQMNSLKTEDTAVYYCARHGNFGNSYVSWFAYWGQGTLVTVSSAAAGSHHHHHH
B10: CD33/CD3 tandem diabody 16 (bispecific antibody)
chain: DIQMTQSPSSLSASVGDRVTITCRSSTGAVTTSNYANWVQQKPGKAPKALIGGTNKRAPGVPSRFSGSLIGDKATLTISSLQPEDFATYYCALWYSNLWVFGQGTKVEIKGGSGGSQVQLVQSGAEVKKPGASVKVSCKASGYTFTSYDINWVRQAPGQGLEWMGWMNPNSGNTGFAQKFQGRVTMTRDTSTSTVYMELSSLRSEDTAVYYCARDRANTDYSLGMDVWGQGTLVTVSSGGSGQSVLTQPPSASGTPGQRVTISCSGSRSNIGSNTVNWYQQLPGTAPKLLIYGNNQRPSGVPDRFSGSKSGTSASLAISGLQSEDEADYYCATWDDSLIGWVFGGGTKLTVLGGSGGSEVQLVESGGGLVQPGGSLRLSCAASGFTFSTYAMNWVRQAPGKGLEWVGRIRSKYNNYATYYADSVKDRFTISRDDSKNSLYLQMNSLKTEDTAVYYCARHGNFGNSYVSYFAYWGQGTLVTVSSAAAGSHHHHHH
B11: CD33/CD3 tandem diabody 08 (bispecific antibody)
chain: QSVLTQPPSASGTPGQRVTISCSGSRSNIGSNTVNWYQQLPGTAPKLLIYGNNQRPSGVPDRFSGSKSGSSASLAISGLQSEDEADYYCATWDDSLIGWVFGGGTKLTVLGGSGGSEVQLVESGGGLVQPGGSLRLSCAASGFTFSTYAMNWVRQAPGKGLEWVGRIRSKYNNYATYYADSVKDRFTISRDDSKNSLYLQMNSLKTEDTAVYYCARHGNFGNSYVSYFAYWGQGTLVTVSSGGSGGSDIQMTQSPSSLSASVGDRVTITCRSSTGAVTTSNYANWVQQKPGKAPKALIGGTNKRAPGVPSRFSGSLIGDKATLTISSLQPEDFATYYCALWYSNLWVFGQGTKVEIKGGSGGSQVQLVQSGAEVKKPGASVKVSCKASGYTFTSYDINWVRQAPGQGLEWMGWMNPNSGNTGFAQKFQGRVTMTRDTSTSTVYMELSSLRSEDTAVYYCARDRANTDFSYGMDVWGQGTLVTVSSAAAGSHHHHHH

The assay deals with cynomolgus CD33 (cynomolgus). Nature of the assay: flow cytometry KDs on CHO cells, cyno CD33 / human CD33. On the technique in general: Flow cytometry measures light scatter and fluorescence of single cells or particles in a stream.
As for B1, the KD ratio CynoCD33/huCD33 worked out at 1.6. Consider B2, for which the KD ratio CynoCD33/huCD33 came out at 45.8. Under B3 stands 1; under B4, 1.7. In the case of B5, the KD ratio CynoCD33/huCD33 stood at 1.1. For B6, the KD ratio CynoCD33/huCD33 was found to be 0.7. With B7, the KD ratio CynoCD33/huCD33 amounted to 0.8. In the case of B8, the KD ratio CynoCD33/huCD33 was found to be 1. Under B9 stands 1.2; under B10, 1.4; under B11, 0.6.
